Measured values published in IntAct's records for PubMed 25416956.

B1: Keratin, type II cytoskeletal 6A (Homo sapiens), P02538 (parent)
chain: MASTSTTIRSHSSSRRGFSANSARLPGVSRSGFSSVSVSRSRGSGGLGGACGGAGFGSRSLYGLGGSKRISIGGGSCAISGGYGSRAGGSYGFGGAGSGFGFGGGAGIGFGLGGGAGLAGGFGGPGFPVCPPGGIQEVTVNQSLLTPLNLQIDPTIQRVRAEEREQIKTLNNKFASFIDKVRFLEQQNKVLETKWTLLQEQGTKTVRQNLEPLFEQYINNLRRQLDSIVGERGRLDSELRGMQDLVEDFKNKYEDEINKRTAAENEFVTLKKDVDAAYMNKVELQAKADTLTDEINFLRALYDAELSQMQTHISDTSVVLSMDNNRNLDLDSIIAEVKAQYEEIAQRSRAEAESWYQTKYEELQVTAGRHGDDLRNTKQEIAEINRMIQRLRSEIDHVKKQCANLQAAIADAEQRGEMALKDAKNKLEGLEDALQKAKQDLARLLKEYQELMNVKLALDVEIATYRKLLEGEECRLNGEGVGQVNISVVQSTVSSGYGGASGVGSGLGLGGGSSYSYGSGLGVGGGFSSSSGRAIGGGLSSVGGGSSTIKYTTTSSSSRKSYKH
partner: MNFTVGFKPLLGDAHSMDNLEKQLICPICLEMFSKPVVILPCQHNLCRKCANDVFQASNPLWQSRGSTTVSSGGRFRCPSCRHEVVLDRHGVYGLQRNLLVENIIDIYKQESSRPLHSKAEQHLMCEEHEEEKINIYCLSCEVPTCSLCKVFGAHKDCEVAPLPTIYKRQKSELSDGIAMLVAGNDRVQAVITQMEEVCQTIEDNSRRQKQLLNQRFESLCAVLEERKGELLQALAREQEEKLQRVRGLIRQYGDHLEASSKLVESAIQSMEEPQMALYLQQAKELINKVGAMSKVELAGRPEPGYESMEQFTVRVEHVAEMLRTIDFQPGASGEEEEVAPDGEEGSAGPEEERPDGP
B2: EF-hand domain-containing protein 1 (Homo sapiens), Q5JVL4 (parent)
chain: MVSNPVHGLPFLPGTSFKDSTKTAFHRSQTLSYRNGYAIVRRPTVGIGGDRLQFNQLSQAELDELASKAPVLTYGQPKQAPPADFIPAHVAFDKKVLKFDAYFQEDVPMSTEEQYRIRQVNIYYYLEDDSMSVIEPVVENSGILQGKLIKRQRLAKNDRGDHYHWKDLNRGINITIYGKTFRVVDCDQFTQVFLESQGIELNPPEKMALDPYTELRKQPLRKYVTPSDFDQLKQFLTFDKQVLRFYAIWDDTDSMYGECRTYIIHYYLMDDTVEIREVHERNDGRDPFPLLMNRQRVPKVLVENAKNFPQCVLEISDQEVLEWYTAKDFIVGKSLTILGRTFFIYDCDPFTRRYYKEKFGITDLPRIDVSKREPPPVKQELPPYNGFGLVEDSAQNCFALIPKAPKKDVIKMLVNDNKVLRYLAVLESPIPEDKDRRFVFSYFLATDMISIFEPPVRNSGIIGGKYLGRTKVVKPYSTVDNPVYYGPSDFFIGAVIEVFGHRFIILDTDEYVLKYMESNAAQYSPEALASIQNHVRKREAPAPEAESKQTEKDPGVQELEALIDTIQKQLKDHSCKDNIREAFQIYDKEASGYVDRDMFFKICESLNVPVDDSLVKELIRMCSHGEGKINYYNFVRAFSN

Variants of: B1
Conditions: with tri54_human TRIM54, Q9BYV2

Question: How did the “effect of a mutation on the interaction” value turn out when MASTSTTIRSHSSSRRGFSANSARLPGVSRSGFSSVSVSRSRGSGGLGGACGGAGFGSRSLYGLGGSKRISIGGGSCAISGGYGSRAGGSYGFGGAGSGFGFGGGAGIGFGLGGGAGLAGGFGGPGFPVCPPGGIQEVTVNQSLLTPLNLQIDPTIQRVRAEEREQIKTLNNKFASFIDKVRFLEQQNKVLETKWTLLQEQGTKTVRQNLEPLFEQYINNLRRQLDSIVGERGRLDSELRGMQDLVEDFKNKYEDEINKRTAAENEFVTLKKDVDAAYMNKVELQAKADTLTDEINFLRALYDAELSQMQTHISDTSVVLSMDNNRNLDLDSIIAEVKAQYEEIAQRSRAEAESWYQTKYEELQVTAGRHGDDLRNTKQEIAEINRMIQRLRSEIDHVKKQCANLQAAIADAEQRGEMALKDAKNKLEGLEDALQKAKQDLARLLKEYQELMNVKLALDVEIPTYRKLLEGEECRLNGEGVGQVNISVVQSTVSSGYGGASGVGSGLGLGGGSSYSYGSGLGVGGGFSSSSGRAIGGGLSSVGGGSSTIKYTTTSSSSRKSYKH [A463P] was run?
Answer: disrupting interaction

Variants of: B2
Conditions: with itf2_human TCF4, P15884
itf2_human TCF4, P15884, sequence (P15884 whole entry): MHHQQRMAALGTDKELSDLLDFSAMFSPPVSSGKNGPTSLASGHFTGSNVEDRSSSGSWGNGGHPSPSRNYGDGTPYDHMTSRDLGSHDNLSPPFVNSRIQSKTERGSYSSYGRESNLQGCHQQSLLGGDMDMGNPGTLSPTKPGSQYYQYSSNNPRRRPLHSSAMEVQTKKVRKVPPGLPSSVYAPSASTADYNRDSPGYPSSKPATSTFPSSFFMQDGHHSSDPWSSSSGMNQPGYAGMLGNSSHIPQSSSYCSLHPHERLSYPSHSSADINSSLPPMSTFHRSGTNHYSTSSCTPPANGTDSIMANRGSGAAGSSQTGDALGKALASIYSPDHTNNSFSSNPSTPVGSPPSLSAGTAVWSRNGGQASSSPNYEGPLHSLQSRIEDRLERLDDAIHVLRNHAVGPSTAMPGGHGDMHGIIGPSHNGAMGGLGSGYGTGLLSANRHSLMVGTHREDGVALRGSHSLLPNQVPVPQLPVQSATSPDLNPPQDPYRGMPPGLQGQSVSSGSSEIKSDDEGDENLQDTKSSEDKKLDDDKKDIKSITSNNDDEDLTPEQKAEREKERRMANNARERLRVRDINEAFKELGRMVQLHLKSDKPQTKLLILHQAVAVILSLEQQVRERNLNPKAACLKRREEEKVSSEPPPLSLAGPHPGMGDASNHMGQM

Question: With R221H as the variant, how does the “effect of a mutation on the interaction” value read?
Answer: disrupting interaction

Variants of: B2
Conditions: with ikzf3_human IKZF3, Q9UKT9
ikzf3_human IKZF3, Q9UKT9, sequence (Q9UKT9 whole entry): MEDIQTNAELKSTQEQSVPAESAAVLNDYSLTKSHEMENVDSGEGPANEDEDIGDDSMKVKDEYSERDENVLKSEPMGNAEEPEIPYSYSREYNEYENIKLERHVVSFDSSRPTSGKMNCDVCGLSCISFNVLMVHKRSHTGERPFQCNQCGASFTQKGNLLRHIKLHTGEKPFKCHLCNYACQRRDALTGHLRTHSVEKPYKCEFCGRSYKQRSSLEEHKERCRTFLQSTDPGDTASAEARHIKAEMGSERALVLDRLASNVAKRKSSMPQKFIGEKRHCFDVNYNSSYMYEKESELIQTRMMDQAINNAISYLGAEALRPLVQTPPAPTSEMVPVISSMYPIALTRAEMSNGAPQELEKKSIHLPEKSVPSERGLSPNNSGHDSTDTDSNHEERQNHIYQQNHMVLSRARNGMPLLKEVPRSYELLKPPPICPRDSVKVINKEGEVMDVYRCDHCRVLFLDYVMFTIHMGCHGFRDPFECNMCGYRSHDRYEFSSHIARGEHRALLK

Question: Which “effect of a mutation on the interaction” value does the source give for R221H here?
Answer: disrupting interaction

Variants of: B2
Conditions: with itf2_human TCF4, P15884
Remark: another data set of the same source

Question: With T508R as the variant, how does the “effect of a mutation on the interaction” value read?
Answer: disrupting interaction

Variants of: B2
Conditions: with itf2_human TCF4, P15884
Remark: another data set of the same source

Question: For A394S, which “effect of a mutation on the interaction” value is on record?
Answer: disrupting interaction

Variants of: B2
Conditions: with ikzf3_human IKZF3, Q9UKT9
Remark: another data set of the same source

Question: With A394S as the variant, how does the “effect of a mutation on the interaction” value read?
Answer: disrupting interaction
